According to PMC5014688 (Structure (London, England : 1993), 2016):
Ends that are not written are not given here. * marks the point of attachment. Crotonyl(E) = C/C=C/C(=O)*

Tests used:
[1] = target: Histone H3K4cr peptide (Homo sapiens) (UniProt P68431); experiment: ITC; details: cited from earlier work
AF9 YEATS domain = target: T1, AF9 YEATS domain (Homo sapiens, UniProt P42568); experiment: 2D 1H-15N HSQC NMR binding to AF9 YEATS domain; details: 30°C, H3 peptide added to AF9 YEATS domain
T1 sequence (P42568 1-138): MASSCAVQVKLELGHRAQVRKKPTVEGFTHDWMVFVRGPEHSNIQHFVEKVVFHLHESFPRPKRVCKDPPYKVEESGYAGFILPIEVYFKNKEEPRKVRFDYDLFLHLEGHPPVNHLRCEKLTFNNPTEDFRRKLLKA

[2] = target: Histone H4K5ac/K8ac peptide (Homo sapiens) (UniProt P62805); details: cited from earlier work
[3] = target: Histone H4K5cr/K8cr peptide (Homo sapiens) (UniProt P62805); details: cited from earlier work
[4] = target: T2, AF9 YEATS domain (residues 1–138) (human, UniProt P42568 1-138); experiment: ITC
T2 sequence (looked up): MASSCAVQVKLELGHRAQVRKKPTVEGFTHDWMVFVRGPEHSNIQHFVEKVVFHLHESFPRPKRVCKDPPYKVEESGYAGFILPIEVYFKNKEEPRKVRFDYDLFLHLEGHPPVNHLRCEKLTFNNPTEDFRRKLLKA

Molecule: Sirt3 (from UniProt Q9NTG7)
- Kd [1]: 25 µM

Molecule: TKQTAR-K-SSGGKA [unmodified H3 peptide]
- changes of protein backbone amide resonances / binding (AF9 YEATS domain): did not cause any protein resonance changes

Molecule: TAF1 BD2 (from UniProt P21675)
- Kd [2]: 50 µM
- Kd [3]: 100 µM

B1: histone H3K27cr peptide (residues 21–33) (peptide)
peptide: ATKAARK(Crotonyl(E))SAPATG
- binding result [4]: binds

B2: histone H3K27ac peptide (residues 21–33) (peptide)
peptide: ATKAARK(Ac)SAPATG
- binding result [4]: binds
